This is an account of results in patent CN106754739A.

Bounds are passed on as bounds.

The experiment addresses 原核表达的重组人P53蛋白 (recombinant human P53 expressed in E. coli BL21 from PET28a-P53, Ni-NTA purified) (human) (UniProt P04637). Nature of the experiment: direct ELISA, purified antibody diluted 1:200 to 1:12800 on plates coated with purified P53 (10 μg/ml), goat anti-mouse IgG-HRP, OD450. (ELISA stands for enzyme-linked immunosorbent assay.)
UniProt P04637, sequence (P04637 whole entry): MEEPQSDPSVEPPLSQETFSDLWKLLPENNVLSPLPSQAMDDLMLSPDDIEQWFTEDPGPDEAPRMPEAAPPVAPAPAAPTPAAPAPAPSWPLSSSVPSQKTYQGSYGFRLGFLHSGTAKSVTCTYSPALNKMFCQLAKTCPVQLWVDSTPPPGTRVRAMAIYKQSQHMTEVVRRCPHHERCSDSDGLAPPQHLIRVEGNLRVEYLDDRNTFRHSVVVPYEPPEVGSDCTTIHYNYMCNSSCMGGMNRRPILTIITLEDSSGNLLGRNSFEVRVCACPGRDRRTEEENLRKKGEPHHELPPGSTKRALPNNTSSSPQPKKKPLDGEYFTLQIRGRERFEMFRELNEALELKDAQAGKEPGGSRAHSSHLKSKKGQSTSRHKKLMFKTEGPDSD

B1: 小鼠抗人P53单克隆抗体6C4 (mouse anti-human P53 monoclonal antibody from hybridoma 6C4, CGMCC No. 6916) (antibody, part only; not given: light chain variable region, V domains shown, part only)
VH: DFCWSLSGVGVGCHLVTNSGKGLEWLAHIWWDDDKSYNPALKSRLTISKDTSTNQVFLKIASVDTADTATYYCARMTTATFAYWGQGTLVTVSPASTTPPISQ
Turning to B1, the ELISA titer (滴度) (dilution factor (1:x)) was greater than 10000.
